Results reported in patent publication US20230002732A1.

B1: C18orf25 (protein, UniProt Q96B23 1-404, looked up)
chain: MKMEEAVGKVEELIESEAPPKASEQETAKEEDGSVELESQVQKDGVADSTVISSMPCLLMELRRDSSESQLASTESDKPTTGRVYESDSSNHCMLSPSSSGHLADSDTLSSAEENEPSQAETAVEGDPSGVSGATVGRKSRRSRSESETSTMAAKKNRQSSDKQNGRVAKVKGHRSQKHKERIRLLRQKREAAARKKYNLLQDSSTSDSDLTCDSSTSSSDDDEEVSGSSKTITAEIPDGPPVVAHYDMSDTNSDPEVVNVDNLLAAAVVQEHSNSVGGQDTGATWRTSGLLEELNAEAGHLDPGFLASDKTSAGNAPLNEEINIASSDSEVEIVGVQEHARCVHPRGGVIQSVSSWKHGSGTQYVSTRQTQSWTAVTPQQTWASPAEVVDLTLDEDSRRKYLL
B2: PIAS3 (enzyme, UniProt Q9Y6X2 1-628, looked up)
chain: MAELGELKHMVMSFRVSELQVLLGFAGRNKSGRKHELLAKALHLLKSSCAPSVQMKIKELYRRRFPRKTLGPSDLSLLSLPPGTSPVGSPGPLAPIPPTLLAPGTLLGPKREVDMHPPLPQPVHPDVTMKPLPFYEVYGELIRPTTLASTSSQRFEEAHFTFALTPQQVQQILTSREVLPGAKCDYTIQVQLRFCLCETSCPQEDYFPPNLFVKVNGKLCPLPGYLPPTKNGAEPKRPSRPINITPLARLSATVPNTIVVNWSSEFGRNYSLSVYLVRQLTAGTLLQKLRAKGIRNPDHSRALIKEKLTADPDSEVATTSLRVSLMCPLGKMRLTVPCRALTCAHLQSFDAALYLQMNEKKPTWTCPVCDKKAPYESLIIDGLFMEILSSCSDCDEIQFMEDGSWCPMKPKKEASEVCPPPGYGLDGLQYSPVQGGDPSENKKKVEVIDLTIESSSDEEDLPPTKKHCSVTSAAIPALPGSKGVLTSGHQPSSVLRSPAMGTLGGDFLSSLPLHEYPPAFPLGADIQGLDLFSFLQTESQHYGPSVITSLDEQDALGHFFQYRGTPSHFLGPLAPTLGSSHCSATPAPPPGRVSSIVAPGGALREGHGGPLPSGPSLTGCRSDIISLD
B3: RNF111 (enzyme, UniProt Q6ZNA4 1-994, looked up)
chain: MSQWTPEYNELYTLKVDMKSEIPSDAPKTQESLKGILLHPEPIGAAKSFPAGVEMINSKVGNEFSHLCDDSQKQEKEMNGNQQEQEKSLVVRKKRKSQQAGPSYVQNCVKENQGILGLRQHLGTPSDEDNDSSFSDCLSSPSSSLHFGDSDTVTSDEDKEVSVRHSQTILNAKSRSHSARSHKWPRTETESVSGLLMKRPCLHGSSLRRLPCRKRFVKNNSSQRTQKQKERILMQRKKREVLARRKYALLPSSSSSSENDLSSESSSSSSTEGEEDLFVSASENHQNNPAVPSGSIDEDVVVIEASSTPQVTANEEINVTSTDSEVEIVTVGESYRSRSTLGHSRSHWSQGSSSHASRPQEPRNRSRISTVIQPLRQNAAEVVDLTVDEDEPTVVPTTSARMESQATSASINNSNPSTSEQASDTASAVTSSQPSTVSETSATLTSNSTTGTSIGDDSRRTTSSAVTETGPPAMPRLPSCCPQHSPCGGSSQNHHALGHPHTSCFQQHGHHFQHHHHHHHTPHPAVPVSPSFSDPACPVERPPQVQAPCGANSSSGTSYHEQQALPVDLSNSGIRSHGSGSFHGASAFDPCCPVSSSRAAIFGHQAAAAAPSQPLSSIDGYGSSMVAQPQPQPPPQPSLSSCRHYMPPPYASLTRPLHHQASACPHSHGNPPPQTQPPPQVDYVIPHPVHAFHSQISSHATSHPVAPPPPTHLASTAAPIPQHLPPTHQPISHHIPATAPPAQRLHPHEVMQRMEVQRRRMMQHPTRAHERPPPHPHRMHPNYGHGHHIHVPQTMSSHPRQAPERSAWELGIEAGVTAATYTPGALHPHLAHYHAPPRLHHLQLGALPLMVPDMAGYPHIRYISSGLDGTSFRGPFRGNFEELIHLEERLGNVNRGASQGTIERCTYPHKYKKVTTDWFSQRKLHCKQDGEEGTEEDTEEKCTICLSILEEGEDVRRLPCMHLFHQVCVDQWLITNKKCPICRVDIEAQLPSES
B4: ZBTB16 (protein, UniProt Q05516 1-673, looked up)
chain: MDLTKMGMIQLQNPSHPTGLLCKANQMRLAGTLCDVVIMVDSQEFHAHRTVLACTSKMFEILFHRNSQHYTLDFLSPKTFQQILEYAYTATLQAKAEDLDDLLYAAEILEIEYLEEQCLKMLETIQASDDNDTEATMADGGAEEEEDRKARYLKNIFISKHSSEESGYASVAGQSLPGPMVDQSPSVSTSFGLSAMSPTKAAVDSLMTIGQSLLQGTLQPPAGPEEPTLAGGGRHPGVAEVKTEMMQVDEVPSQDSPGAAESSISGGMGDKVEERGKEGPGTPTRSSVITSARELHYGREESAEQVPPPAEAGQAPTGRPEHPAPPPEKHLGIYSVLPNHKADAVLSMPSSVTSGLHVQPALAVSMDFSTYGGLLPQGFIQRELFSKLGELAVGMKSESRTIGEQCSVCGVELPDNEAVEQHRKLHSGMKTYGCELCGKRFLDSLRLRMHLLAHSAGAKAFVCDQCGAQFSKEDALETHRQTHTGTDMAVFCLLCGKRFQAQSALQQHMEVHAGVRSYICSECNRTFPSHTALKRHLRSHTGDHPYECEFCGSCFRDESTLKSHKRIHTGEKPYECNGCGKKFSLKHQLETHYRVHTGEKPFECKLCHQRSRDYSAMIKHLRTHNGASPYQCTICTEYCPSLSSMQKHMKGHKPEEIPPDWRIEKTYLYLCYV
B5: ZMYM5 (protein, UniProt Q9UJ78 1-669, looked up)
chain: MEKCSVGGLELTEQTPALLGNMAMATSLMDIGDSFGHPACPLVSRSRNSPVEDDDDDDDVVFIESIQPPSISAPAIADQRNFIFASSKNEKPQGNYSVIPPSSRDLASQKGNISETIVIDDEEDIETNGGAEKKSSCFIEWGLPGTKNKTNDLDFSTSSLSRSKTKTGVRPFNPGRMNVAGDLFQNGEFATHHSPDSWISQSASFPSNQKQPGVDSLSPVALLRKQNFQPTAQQQLTKPAKITCANCKKPLQKGQTAYQRKGSAHLFCSTTCLSSFSHKRTQNTRSIICKKDASTKKANVILPVESSKSFQEFYSTSCLSPCENNWNLKKGVFNKSRCTICSKLAEIRHEVSVNNVTHKLCSNHCFNKYRLANGLIMNCCEHCGEYMPSKSTGNNILVIGGQQKRFCCQSCINEYKQMMETKSKKLTASENRKRNAFREENEKQLYGSSNTLLKKIEGIPEKKEKTSQLQLSVECGTDTLLIQENVNLPPSSTSTIADTFQEQLEEKNFEDSIVPVVLSADPGTWPRILNIKQRDTLVENVPPQVRNFNFPKDNTGRKFSETYYTRILPNGEKTTRSWLLYSTSKDSVFCLYCKLFGEGKNQLKNENGCKDWQHLSHILSKHEESEMHVNNSVKYSKLKSDLKKNKAIDAAEHRLYENEKNDGVLLLYT
B6: ZNF198 (protein, UniProt Q9UBW7 1-1377, looked up)
chain: MDTSSVGGLELTDQTPVLLGSTAMATSLTNVGNSFSGPANPLVSRSNKFQNSSVEDDDDVVFIEPVQPPPPSVPVVADQRTITFTSSKNEELQGNDSKITPSSKELASQKGSVSETIVIDDEEDMETNQGQEKNSSNFIERRPPETKNRTNDVDFSTSSFSRSKVNAGMGNSGITTEPDSEIQIANVTTLETGVSSVNDGQLENTDGRDMNLMITHVTSLQNTNLGDVSNGLQSSNFGVNIQTYTPSLTSQTKTGVGPFNPGRMNVAGDVFQNGESATHHNPDSWISQSASFPRNQKQPGVDSLSPVASLPKQIFQPSVQQQPTKPVKVTCANCKKPLQKGQTAYQRKGSAHLFCSTTCLSSFSHKPAPKKLCVMCKKDITTMKGTIVAQVDSSESFQEFCSTSCLSLYEDKQNPTKGALNKSRCTICGKLTEIRHEVSFKNMTHKLCSDHCFNRYRMANGLIMNCCEQCGEYLPSKGAGNNVLVIDGQQKRFCCQSCVSEYKQVGSHPSFLKEVRDHMQDSFLMQPEKYGKLTTCTGCRTQCRFFDMTQCIGPNGYMEPYCSTACMNSHKTKYAKSQSLGIICHFCKRNSLPQYQATMPDGKLYNFCNSSCVAKFQALSMQSSPNGQFVAPSDIQLKCNYCKNSFCSKPEILEWENKVHQFCSKTCSDDYKKLHCIVTYCEYCQEEKTLHETVNFSGVKRPFCSEGCKLLYKQDFARRLGLRCVTCNYCSQLCKKGATKELDGVVRDFCSEDCCKKFQDWYYKAARCDCCKSQGTLKERVQWRGEMKHFCDQHCLLRFYCQQNEPNMTTQKGPENLHYDQGCQTSRTKMTGSAPPPSPTPNKEMKNKAVLCKPLTMTKATYCKPHMQTKSCQTDDTWRTEYVPVPIPVPVYIPVPMHMYSQNIPVPTTVPVPVPVPVFLPAPLDSSEKIPAAIEELKSKVSSDALDTELLTMTDMMSEDEGKTETTNINSVIIETDIIGSDLLKNSDPETQSSMPDVPYEPDLDIEIDFPRAAEELDMENEFLLPPVFGEEYEEQPRPRSKKKGAKRKAVSGYQSHDDSSDNSECSFPFKYTYGVNAWKHWVKTRQLDEDLLVLDELKSSKSVKLKEDLLSHTTAELNYGLAHFVNEIRRPNGENYAPDSIYYLCLGIQEYLCGSNRKDNIFIDPGYQTFEQELNKILRSWQPSILPDGSIFSRVEEDYLWRIKQLGSHSPVALLNTLFYFNTKYFGLKTVEQHLRLSFGTVFRHWKKNPLTMENKACLRYQVSSLCGTDNEDKITTGKRKHEDDEPVFEQIENTANPSRCPVKMFECYLSKSPQNLNQRMDVFYLQPECSSSTDSPVWYTSTSLDRNTLENMLVRVLLVKDIYDKDNYELDEDTD

These molecules were tested against E4bp4 (assay: yeast-two-hybrid screen, E4bp4 as bait). Conditions: not given.
CHD1 (from UniProt O14646 1-1710) gave a Positive clones of 1 clones. DSP (from UniProt P15924 1-2871) showed a Positive clones of 2 clones. In the case of FLJ13057, the Positive clones is reported as 5 clones. FLJ544447 was tested, and the Positive clones was 1 clones. For FLNA (from UniProt P21333 2-2647), the Positive clones was 1 clones. In the case of “HIPK1 (from UniProt Q86Z02 1-1210) (enzyme)”, the Positive clones is reported as 1 clones. “HIPK3 (from UniProt Q9H422 1-1215) (enzyme)” gave a Positive clones of 5 clones. PIAS1 (from UniProt O75925 2-651) gave a Positive clones of 20 clones. Work on “RANBP2 (from UniProt P49792 1-3224) (enzyme)” yielded a Positive clones of 1 clones. With “SETX (from UniProt Q7Z333 1-2677) (enzyme)” the Positive clones was 2 clones. With SNRP70 (from UniProt P08621 2-437) the Positive clones was 2 clones. “SORL1 (from UniProt Q92673 82-2214) (receptor)” showed a Positive clones of 1 clones. With “TLK2 (from UniProt Q86UE8 1-772) (enzyme)” the Positive clones was 2 clones. In the case of “U5-200KD (from UniProt O75643 1-2136) (enzyme)”, the Positive clones is reported as 1 clones. ZNF237 gave a Positive clones of 5 clones. B1 showed a Positive clones of 1 clones. B2 was tested, and the Positive clones was 2 clones. B3 gave a Positive clones of 1 clones. Work on B4 yielded a Positive clones of 1 clones. B5 was tested, and the Positive clones was 5 clones. B6 showed a Positive clones of 5 clones.

What follows are molecules tested on E4bp4 (NFIL3), wild type (assay: cell_activity). Conditions: 3T3 cells, 48 h; transcriptional repression.
Work on “pGL3-E4bp4-CS reporter with three E4bp4 consensus binding sites” yielded an activity (% decrease in luciferase) of 50.
